In publication PMC2796082:
Read-outs that look alike come from different tables or passages of the source.

T1: TGF-β3
T1 sequence (P10600 301-412, species assumed, looked up): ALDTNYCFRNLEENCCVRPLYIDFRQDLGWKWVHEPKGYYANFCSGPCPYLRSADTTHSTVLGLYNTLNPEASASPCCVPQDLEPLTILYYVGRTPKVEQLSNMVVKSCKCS

T2: TGF-β2
T2 sequence (P61812 303-414, species assumed, looked up): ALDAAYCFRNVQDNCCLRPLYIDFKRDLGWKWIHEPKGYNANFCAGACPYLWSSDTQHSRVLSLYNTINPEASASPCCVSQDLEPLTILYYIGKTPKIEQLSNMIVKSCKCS


How the values were obtained:
Test in all cases: SPR
TGF-β3 [1] = target: T1, TGF-β3
TGF-β1 [2] = target: TGF-β1
TGF-β2 [3] = target: T2, TGF-β2
TGF-β3 [4] = target: T1, TGF-β3; remark: listed apart in the source
TGF-β1 [5] = target: TGF-β1; remark: listed apart in the source
TGF-β2 [6] = target: T2, TGF-β2; remark: listed apart in the source

TGF-β1, sequence (P01137 279-390): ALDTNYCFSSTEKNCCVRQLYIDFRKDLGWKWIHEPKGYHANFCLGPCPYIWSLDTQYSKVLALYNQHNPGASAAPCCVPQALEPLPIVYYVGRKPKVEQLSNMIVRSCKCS

Kd (TGF-β3 [1]) | Kd (TGF-β1 [2]) | Kd (TGF-β2 [3]) | Kd (TGF-β3 [4]) | Kd (TGF-β1 [5]) | Kd (TGF-β2 [6]) | Binder
5.8 µM | 1.9 µM | – | – | – | – | Sol Δ10, soluble betaglycan endoglin-like domain (domain or fragment) GPEPSTRCELSPINASHPVQALMESFTVLSGCASRGTTGLPREVHVLNLRSTDQGPGQRQREVTLHLNPIASVHTHHKPIVFLLNSPQPLVWHLKTERLAAGVPRLFLVSEGSVVQFPSGNFSLTAETEERNFPQENEHLLRWAQKEYGAVTSFTELKIARNIYIKVGEDQVFPPTCNIGKNFLSLNYLAEYLQPKAAEGCVLPSQPHEKEVHIIELITPSSNPYSAFQVDIIVDIRPAQEDPEVVKNLVLILKCKKSVNWVIKSFDVKGNLKVIAPNSIGFGKESERSMTMTKLVRDDIPSTQENLMKWALDNGYRPVTSYTMAPVANRFHLRLENNEEMRDEEVHTIPPELRILLDPDHPPALDNPLFPGEGSPNGGLPFPFPD
5.8 µM | 9.7 µM | 2.6 µM | 4.4 µM | 2.9 µM | 2.2 µM | Sol Δ11, soluble betaglycan uromodulin-like domain (domain or fragment) GPEPSTRCELSPINASHPVQAIPRRGWKEGEDRIPRPKQPIVPSVQLLPDHREPEEVQGGVDIALSVKCDHEKMVVAVDKDSFQTNGYSGMELTLLDPSCKAKMNGTHFVLESPLNGCGTRHRRSTPDGVVYYNSIVVQAPSPGDSSGWPDGYEDLESGDNGFPGDGDEGETAPLSRAGVVVFNCSLRQLRNPSGFQGQLDGNATFNMELYNTDLFLVPSPGVFSVAENEHVYVEVSVTKADQDLGFAIQTCFLSPYSNPDRMSDYTIIENICPKDDSVKFYSSKRVHFPIPHAEVDKKRFSFLFKSVFNTSLLFLHCELTLCSRKKGSLKLPRCVTPDDACTSLDATMIWTMMQNKKTFTKPLAVVLQVDYKENVPSTKDSSPIPPPPPQIFH
0.143 µM | 0.095 µM | 0.036 µM | – | – | – | Recombinant soluble betaglycan (receptor, glycoprotein, devoid of GAG chains) GPEPSTRCELSPINASHPVQALMESFTVLSGCASRGTTGLPREVHVLNLRSTDQGPGQRQREVTLHLNPIASVHTHHKPIVFLLNSPQPLVWHLKTERLAAGVPRLFLVSEGSVVQFPSGNFSLTAETEERNFPQENEHLLRWAQKEYGAVTSFTELKIARNIYIKVGEDQVFPPTCNIGKNFLSLNYLAEYLQPKAAEGCVLPSQPHEKEVHIIELITPSSNPYSAFQVDIIVDIRPAQEDPEVVKNLVLILKCKKSVNWVIKSFDVKGNLKVIAPNSIGFGKESERSMTMTKLVRDDIPSTQENLMKWALDNGYRPVTSYTMAPVANRFHLRLENNEEMRDEEVHTIPPELRILLDPDHPPALDNPLFPGEGSPNGGLPFPFPDIPRRGWKEGEDRIPRPKQPIVPSVQLLPDHREPEEVQGGVDIALSVKCDHEKMVVAVDKDSFQTNGYSGMELTLLDPSCKAKMNGTHFVLESPLNGCGTRHRRSTPDGVVYYNSIVVQAPSPGDSSGWPDGYEDLESGDNGFPGDGDEGETAPLSRAGVVVFNCSLRQLRNPSGFQGQLDGNATFNMELYNTDLFLVPSPGVFSVAENEHVYVEVSVTKADQDLGFAIQTCFLSPYSNPDRMSDYTIIENICPKDDSVKFYSSKRVHFPIPHAEVDKKRFSFLFKSVFNTSLLFLHCELTLCSRKKGSLKLPRCVTPDDACTSLDATMIWTMMQNKKTFTKPLAVVLQVDYKENVPSTKDSSPIPPPPPQIFHGLDTLTV
